Positions count from the first letter of the chain named.

Common to all, as to assay: cell_activity
Series [1] has as its target T1, CbbR T232I (Ralstonia eutropha) (UniProt P42722).
T1 sequence: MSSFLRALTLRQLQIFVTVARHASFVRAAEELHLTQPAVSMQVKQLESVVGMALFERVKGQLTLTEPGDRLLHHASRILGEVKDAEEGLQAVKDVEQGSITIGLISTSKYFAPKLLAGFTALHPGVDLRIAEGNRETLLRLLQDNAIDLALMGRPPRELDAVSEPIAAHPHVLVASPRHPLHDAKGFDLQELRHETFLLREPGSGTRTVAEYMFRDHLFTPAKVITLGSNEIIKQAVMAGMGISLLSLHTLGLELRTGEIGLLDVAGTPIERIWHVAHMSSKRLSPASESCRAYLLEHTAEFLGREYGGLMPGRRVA
As to conditions: beta-galactosidase, chemoheterotrophic; chemoautotrophic 5005.

The target of series [2] is T2, CbbR P221S/T299I (Ralstonia eutropha) (UniProt P42722).
T2 sequence: T1 sequence with P221S, I232T, T299I
As to conditions: beta-galactosidase, chemoheterotrophic; chemoautotrophic 5312.

Series [3] deals with T3, CbbR G205D (Ralstonia eutropha) (UniProt P42722).
T3 sequence: T1 sequence with G205D, I232T
Particulars: beta-galactosidase, chemoheterotrophic; chemoautotrophic 2241.

Series [4] deals with T4, CbbR D148N (Ralstonia eutropha) (UniProt P42722).
T4 sequence: T1 sequence with D148N, I232T
Particulars: beta-galactosidase, chemoheterotrophic; chemoautotrophic 6442.

The target in series [5] is T5, CbbR D144N (Ralstonia eutropha) (UniProt P42722).
T5 sequence: T1 sequence with D144N, I232T
Particulars: beta-galactosidase, chemoheterotrophic; chemoautotrophic 6932.

Series [6] addresses T6, CbbR G205D/G118D (Ralstonia eutropha) (UniProt P42722).
T6 sequence: T1 sequence with G118D, G205D, I232T
As to conditions: beta-galactosidase, chemoheterotrophic; chemoautotrophic 3939.

Series [7] deals with T7, CbbR A117V (Ralstonia eutropha) (UniProt P42722).
T7 sequence: T1 sequence with A117V, I232T
Particulars: beta-galactosidase, chemoheterotrophic; chemoautotrophic 6793.

The target of series [8] is T8, CbbR E87K/G242S (Ralstonia eutropha) (UniProt P42722).
T8 sequence: T1 sequence with E87K, I232T, G242S
Particulars: beta-galactosidase, chemoheterotrophic; chemoautotrophic 4820.

In the case of cbb promoter in lacZ reporter strain, the activity in series [1] was 303 nmol/min/mg; in series [2] it was 655 nmol/min/mg; in series [3] it was 488 nmol/min/mg; in series [4], 343 nmol/min/mg; in series [5], 809 nmol/min/mg; in series [6], 1170 nmol/min/mg. Besides, the results for the activity in series [7] and in series [8] were 254 nmol/min/mg and 303 nmol/min/mg, respectively.

The record behind these values is patent publication US20140087436.
